Measurements: US20200024330A1

Columns and labels:
Test in all cases: cell-based or functional assay
[1] = molecular target: HIV-1 Env of isolate MGRM-D-024 (subtype D), on pseudovirus (HIV-1)
[2] = molecular target: HIV-1 Env of isolate MGRM-G-025 (HIV-1)
[3] = molecular target: HIV-1 Env of isolate MGRM-D-001 (HIV-1)
[4] = molecular target: HIV-1 Env of isolate MGRM-C-026 (HIV-1)
[5] = molecular target: HIV-1 Env of isolate 92UG005 (HIV-1)
[6] = molecular target: HIV-1 Env of isolate MGRM-C-008 (HIV-1)
[7] = molecular target: HIV-1 JR-CSF Env P470A (HIV-1 (isolate JR-CSF)) (UniProt P20871)
[8] = molecular target: HIV-1 Env of isolate MGRM-D-026 (subtype D), on pseudovirus (HIV-1)
[9] = molecular target: HIV-1 JR-CSF Env V127A (HIV-1 (isolate JR-CSF)) (UniProt P20871)
[10] = molecular target: HIV-1 MGRM-C-023 Env (HIV-1)
[11] = molecular target: HIV-1 IAVI-C18 envelope glycoprotein (Env) on pseudovirus (HIV-1)
[12] = molecular target: HIV-1 92UG005 envelope protein (Env) on pseudovirus (HIV-1)
[13] = molecular target: HIV-1 Env of pseudovirus MGRM-Chronic-B-008, clade B (HIV-1)
[14] = molecular target: HIV-1 MGRM-A-001 envelope glycoprotein (Env) (HIV-1)
[15] = molecular target: HIV-1 LAVIC_18 Env (HIV-1)
[16] = molecular target: aMLV envelope protein on pseudovirus (aMLV)
[17] = molecular target: HIV-1 MGRM-A-008 envelope glycoprotein (Env) (HIV-1)
[18] = molecular target: HIV-1 Env of isolate MGRM-D-029 (clade D) (HIV-1)
[19] = molecular target: HIV-1 APV13 envelope glycoprotein (Env) on pseudovirus (HIV-1)
[20] = molecular target: HIV-1 Env of isolate MG RM-AG-008 (HIV-1)
[21] = molecular target: HIV-1 Env of isolate MG RM-AG-001 (HIV-1)
[22] = molecular target: HIV-1 Env of isolate MG RM-D-005 (subtype D) (HIV-1)
[23] = molecular target: HIV-1 Env of isolate MGRM-C-022 (pseudovirus) (HIV-1 isolate MGRM-C-022, subtype C)
[24] = molecular target: HIV-1 MGRM-Chronic-B-004 Env (pseudovirus) (HIV-1)
[25] = molecular target: HIV-1 MGRM-Chronic-B-018 Env (pseudovirus) (HIV-1)
[26] = molecular target: HIV-1 JR-FL Env (pseudovirus) (HIV-1)
[27] = molecular target: HIV-1 Env of isolate 93MW959 (pseudovirus) (HIV-1 isolate 93MW959, subtype C)
[28] = molecular target: HIV-1 PVO.4 Env (pseudovirus) (HIV-1)
[29] = molecular target: HIV-1 envelope glycoprotein (Env) of isolate MGRM-C-023, on pseudovirus (HIV-1)
[30] = molecular target: HIV-1 envelope glycoprotein (Env) of isolate MGRM-C-027, on pseudovirus (HIV-1)
[31] = molecular target: HIV-1 envelope glycoprotein (Env) of isolate MGRM-C-017, on pseudovirus (HIV-1)
[32] = molecular target: HIV-1 Env of isolate MGRM-G-016 (subtype G) (HIV-1)
[33] = molecular target: HIV-1 envelope glycoprotein (Env) of isolate MGRM-C-025, on pseudovirus (HIV-1)
[34] = molecular target: HIV-1 Env of isolate MGRM-D-028 (HIV-1)
[35] = molecular target: HIV-1 Env of isolate MGRM-G-001 (subtype G) (HIV-1)

| Substance | IC50, pseudovirus neutralization [1] | IC50, pseudovirus neutralization [2] | IC50 [3] | IC50 [4] | IC50 [5] | IC50 [6] | Fold IC50 increase relative to wild-type [7] | IC50, pseudovirus neutralization [8] | Fold IC50 increase relative to wild-type [9] | IC50 [10] | neutralization IC50 [12] | IC50 (µg/ml), pseudovirus neutralization [13] | IC50 (µg/ml), pseudovirus neutralization [14] | IC50 [15] | IC90 (pseudovirus neutralization) [16] | IC50 (µg/ml), pseudovirus neutralization [17] | IC50 (µg/ml), pseudovirus neutralization [18] | other results |
| --- | --- | --- | --- | --- | --- | --- | --- | --- | --- | --- | --- | --- | --- | --- | --- | --- | --- | --- |
| 5136_H01 (PGT-131) (antibody) | > 50 µg/mL | 7.75 µg/mL | > 50 µg/mL | 1.67 µg/mL | 0.854 µg/mL | > 50 µg/mL | 1 fold | > 50 µg/mL | 0.6 fold |  |  |  |  |  |  |  |  |  |
| 4E10 (antibody) |  |  |  |  |  |  |  |  |  | 1.95 µg/mL | 8.86 µg/mL | 16.7 µg/mL | 15.1 µg/mL | > 50 µg/mL | > 50 µg/mL | 7.59 µg/mL | 5.3 µg/mL | IC90 (pseudovirus neutralization) [11]: > 50 µg/mL |
| 5114_A19 (PGT-128) (antibody) | 0.067 µg/mL | 0.017 µg/mL | 0.138 µg/mL | 0.007 µg/mL | 0.018 µg/mL | 0.373 µg/mL | 0.6 fold | > 50 µg/mL | 1.1 fold |  |  |  |  |  |  |  |  |  |
| 5343_B08 (PGT-135) (antibody) | > 50 µg/mL | 0.592 µg/mL | > 50 µg/mL | 0.004 µg/mL | > 50 µg/mL | > 50 µg/mL | 0.8 fold | > 50 µg/mL | 1.4 fold |  |  |  |  |  |  |  |  |  |
| 2F5 (antibody) |  |  |  |  |  |  |  |  |  | > 50 µg/mL | 11.8 µg/mL | > 50 µg/mL | > 50 µg/mL | > 50 µg/mL | > 50 µg/mL | > 50 µg/mL | > 50 µg/mL |  |
| 5123_A06 (PGT-125) (antibody) |  | > 50 µg/mL |  |  |  |  | 1.6 fold |  | 0.9 fold |  |  |  |  |  |  |  |  | IC50 (ug/ml), neutralizing activity [19]: 0.0128 µg/mL; neutralization IC50 [19]: 0.0128 µg/mL; neutralization IC80 [19]: 0.0414 µg/mL; neutralization IC90 [19]: 0.0821 µg/mL; neutralization IC95 [19]: 0.154 µg/mL; neutralization IC50 [20]: > 50 µg/mL; neutralization IC50 [21]: > 50 µg/mL; IC50 (µg/mL), pseudovirus neutralization [22]: > 50 µg/mL; IC50 (µg/mL) neutralization [23]: 1.23 µg/mL; IC50, pseudovirus neutralization [24]: 0.007 µg/mL; IC50, pseudovirus neutralization [25]: > 50 µg/mL; IC50, pseudovirus neutralization [26]: 0.009 µg/mL; IC50 (µg/mL) neutralization [27]: 37.5 µg/mL; IC50, pseudovirus neutralization [28]: 0.042 µg/mL |
| 2G12 (antibody) |  |  |  |  |  |  |  |  |  | > 50 µg/mL | > 50 µg/mL | 0.55 µg/mL | > 50 µg/mL | > 50 µg/mL | > 50 µg/mL | > 50 µg/mL | > 50 µg/mL | IC90 (pseudovirus neutralization) [11]: > 50 µg/mL |
| VRC01 (antibody) |  |  |  |  |  |  |  |  |  |  |  |  |  |  |  |  |  | IC50, pseudovirus neutralization [29]: 0.077 µg/mL; IC50, pseudovirus neutralization [30]: 0.125 µg/mL; IC50, pseudovirus neutralization [31]: 0.366 µg/mL; neutralization IC50 [32]: 0.063 µg/mL; IC50, pseudovirus neutralization [33]: 2.36 µg/mL; IC50, pseudovirus neutralization [34]: 0.377 µg/mL; neutralization IC50 [35]: 0.0371 µg/mL |
| 5141_B17 (PGT-126) (antibody) |  | 17.1 µg/mL |  |  |  |  | 2.7 fold |  | 1.3 fold |  |  |  |  |  |  |  |  | IC50 (ug/ml), neutralizing activity [19]: 0.012 µg/mL; neutralization IC50 [20]: > 50 µg/mL; neutralization IC50 [21]: > 50 µg/mL; IC50 (µg/mL), pseudovirus neutralization [22]: 0.792 µg/mL; IC50 (µg/mL) neutralization [23]: 0.96 µg/mL; IC50, pseudovirus neutralization [24]: 0.01 µg/mL; IC50, pseudovirus neutralization [25]: 0.052 µg/mL; IC50, pseudovirus neutralization [26]: 0.014 µg/mL; IC50 (µg/mL) neutralization [27]: 9.44 µg/mL; IC50, pseudovirus neutralization [28]: 0.017 µg/mL |
